{"source": "paper PMC6540754", "origin": "cited, not measured here", "target": "BfrB (Pseudomonas aeruginosa) (UniProt Q9HY79)", "sequence (Q9HY79 whole entry)": "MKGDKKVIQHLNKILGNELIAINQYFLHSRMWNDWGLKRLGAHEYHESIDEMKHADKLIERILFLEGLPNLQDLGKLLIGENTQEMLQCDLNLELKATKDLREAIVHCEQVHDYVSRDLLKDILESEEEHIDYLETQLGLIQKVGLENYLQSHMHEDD", "data": [{"substance": "Bfd (from UniProt Q9HY80)", "values": [{"measurement": "Kd", "value": 3.4, "unit": "µM"}]}]}
